The results in this text go back to US20110135647A1 (ONCOTHERAPY SCIENCE, published 2011).

For assay [1], the target named is T1, myc-tagged p97 (p97/VCP-myc-6×His) (human, UniProt P55072 1-806).
T1 construct: Expressed in COS-7 cells; also called myc-p97; p97/VCP-myc-His; not shown: C-terminal myc-6×His tag of pcDNA3.1-myc-His
Put plainly: co-immunoprecipitation with HA-tag antibody from co-transfected cells.

Assay [2] addresses T2, GST-tagged PP1α (GST-PP1α) (human, UniProt P62136 1-330).
T2 construct: also called GST-fused PP1α; not shown: glutathione S-transferase (GST) tag of the pCAGGS-nGST vector, N-terminal
Put plainly: anti-HA immunoprecipitation from co-transfected COS-7 cells, anti-GST blot.

Assay [3] has as its target T3, HA-tagged A7322 (A7322-HA) (human, UniProt Q5TH69 1-2177).
T3 construct: Expressed in COS-7 cells for the ERα co-immunoprecipitation; not shown: HA tag
Put plainly: co-immunoprecipitation from co-transfected COS-7 cells, anti-FLAG IP / anti-HA blot and the reverse.

T2 sequence (P62136 whole entry, the tested form may be a part): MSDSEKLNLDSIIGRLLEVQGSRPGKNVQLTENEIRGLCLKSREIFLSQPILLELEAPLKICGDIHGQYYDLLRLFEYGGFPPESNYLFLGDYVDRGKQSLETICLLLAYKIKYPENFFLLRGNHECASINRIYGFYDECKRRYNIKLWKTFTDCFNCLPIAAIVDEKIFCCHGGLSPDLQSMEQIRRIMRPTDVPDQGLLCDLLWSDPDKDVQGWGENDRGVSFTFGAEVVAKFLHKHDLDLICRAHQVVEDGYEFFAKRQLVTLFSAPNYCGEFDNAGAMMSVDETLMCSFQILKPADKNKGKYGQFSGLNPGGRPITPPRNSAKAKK
T3 sequence (Q5TH69 whole entry): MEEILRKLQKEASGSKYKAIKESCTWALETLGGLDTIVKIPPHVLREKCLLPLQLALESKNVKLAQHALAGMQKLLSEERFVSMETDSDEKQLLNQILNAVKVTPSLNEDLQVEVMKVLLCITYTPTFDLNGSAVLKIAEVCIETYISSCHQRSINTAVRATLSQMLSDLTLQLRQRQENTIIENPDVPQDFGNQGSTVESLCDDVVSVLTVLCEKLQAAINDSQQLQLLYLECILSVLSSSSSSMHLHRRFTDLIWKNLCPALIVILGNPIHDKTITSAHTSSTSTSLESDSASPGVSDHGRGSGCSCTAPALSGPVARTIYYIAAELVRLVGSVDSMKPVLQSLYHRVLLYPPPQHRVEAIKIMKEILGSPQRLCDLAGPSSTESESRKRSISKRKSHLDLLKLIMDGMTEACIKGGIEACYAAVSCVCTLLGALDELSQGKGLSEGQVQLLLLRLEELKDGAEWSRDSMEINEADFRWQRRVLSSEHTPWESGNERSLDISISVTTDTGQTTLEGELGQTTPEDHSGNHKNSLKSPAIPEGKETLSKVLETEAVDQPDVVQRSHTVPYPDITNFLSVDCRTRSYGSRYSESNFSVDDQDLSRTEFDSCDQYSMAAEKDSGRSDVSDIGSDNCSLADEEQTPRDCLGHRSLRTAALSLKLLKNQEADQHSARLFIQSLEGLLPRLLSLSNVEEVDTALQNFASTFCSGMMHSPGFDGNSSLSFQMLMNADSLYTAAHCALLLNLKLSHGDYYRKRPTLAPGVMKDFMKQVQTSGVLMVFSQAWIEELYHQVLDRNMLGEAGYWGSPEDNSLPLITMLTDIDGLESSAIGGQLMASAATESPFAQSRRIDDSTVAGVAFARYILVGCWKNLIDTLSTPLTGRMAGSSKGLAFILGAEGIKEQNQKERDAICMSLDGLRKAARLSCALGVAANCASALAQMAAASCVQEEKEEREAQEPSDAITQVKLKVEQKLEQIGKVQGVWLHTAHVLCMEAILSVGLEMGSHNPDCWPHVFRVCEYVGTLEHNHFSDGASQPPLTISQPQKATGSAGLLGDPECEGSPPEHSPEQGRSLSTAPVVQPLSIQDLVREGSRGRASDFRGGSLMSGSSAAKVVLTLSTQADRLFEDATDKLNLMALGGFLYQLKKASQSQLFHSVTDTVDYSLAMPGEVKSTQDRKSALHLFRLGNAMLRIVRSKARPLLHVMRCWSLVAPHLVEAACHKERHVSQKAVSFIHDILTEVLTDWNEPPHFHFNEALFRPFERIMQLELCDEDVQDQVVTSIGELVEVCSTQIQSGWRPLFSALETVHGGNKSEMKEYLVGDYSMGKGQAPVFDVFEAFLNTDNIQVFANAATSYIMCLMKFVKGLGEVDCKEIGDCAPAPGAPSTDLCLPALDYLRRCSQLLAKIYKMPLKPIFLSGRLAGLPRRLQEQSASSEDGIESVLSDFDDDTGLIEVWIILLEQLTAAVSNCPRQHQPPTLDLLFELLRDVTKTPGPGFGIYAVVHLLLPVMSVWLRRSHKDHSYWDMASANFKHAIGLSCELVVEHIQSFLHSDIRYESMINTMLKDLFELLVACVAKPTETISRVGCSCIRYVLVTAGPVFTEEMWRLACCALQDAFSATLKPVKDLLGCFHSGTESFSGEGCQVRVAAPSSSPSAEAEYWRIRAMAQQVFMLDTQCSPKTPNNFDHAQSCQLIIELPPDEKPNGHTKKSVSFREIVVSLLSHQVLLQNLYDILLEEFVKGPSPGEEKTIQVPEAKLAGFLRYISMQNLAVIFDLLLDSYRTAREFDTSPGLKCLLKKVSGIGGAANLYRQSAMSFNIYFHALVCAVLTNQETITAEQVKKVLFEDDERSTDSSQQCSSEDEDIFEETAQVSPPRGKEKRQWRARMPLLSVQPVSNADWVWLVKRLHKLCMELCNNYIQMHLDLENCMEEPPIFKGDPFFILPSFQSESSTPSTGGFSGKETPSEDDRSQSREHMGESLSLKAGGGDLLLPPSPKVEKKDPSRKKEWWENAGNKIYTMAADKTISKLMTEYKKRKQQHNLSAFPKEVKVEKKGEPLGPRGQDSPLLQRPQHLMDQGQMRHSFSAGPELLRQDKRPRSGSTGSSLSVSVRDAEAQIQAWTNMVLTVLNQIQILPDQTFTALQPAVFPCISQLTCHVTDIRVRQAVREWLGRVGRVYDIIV
T1 sequence (P55072 whole entry): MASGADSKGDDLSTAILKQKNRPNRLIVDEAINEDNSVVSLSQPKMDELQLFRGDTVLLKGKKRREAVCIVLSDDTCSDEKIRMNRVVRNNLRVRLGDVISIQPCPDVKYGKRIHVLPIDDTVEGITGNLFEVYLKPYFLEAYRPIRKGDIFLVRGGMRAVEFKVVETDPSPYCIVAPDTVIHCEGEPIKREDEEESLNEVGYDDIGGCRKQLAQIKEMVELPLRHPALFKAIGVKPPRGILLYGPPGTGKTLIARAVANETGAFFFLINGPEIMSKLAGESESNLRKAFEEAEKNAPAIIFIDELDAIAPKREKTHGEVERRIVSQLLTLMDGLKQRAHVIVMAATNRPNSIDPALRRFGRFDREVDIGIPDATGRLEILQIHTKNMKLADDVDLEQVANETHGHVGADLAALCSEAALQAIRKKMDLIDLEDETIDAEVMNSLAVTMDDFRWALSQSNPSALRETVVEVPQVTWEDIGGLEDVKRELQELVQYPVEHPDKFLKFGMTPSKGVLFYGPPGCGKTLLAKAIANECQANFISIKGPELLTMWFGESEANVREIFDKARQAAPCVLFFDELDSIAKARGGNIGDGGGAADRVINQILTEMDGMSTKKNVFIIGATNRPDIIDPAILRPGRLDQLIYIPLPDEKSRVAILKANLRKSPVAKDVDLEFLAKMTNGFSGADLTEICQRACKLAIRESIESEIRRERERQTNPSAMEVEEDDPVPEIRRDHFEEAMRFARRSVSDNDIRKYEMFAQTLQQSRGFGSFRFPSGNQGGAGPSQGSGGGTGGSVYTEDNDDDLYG

B1: HA-tagged PBK/TOPK (HA-PBK/TOPK), wild type (enzyme)
chain: MEGISNFKTPSKLSEKKKSVLCSTPTINIPASPFMQKLGFGTGVNVYLMKRSPRGLSHSPWAVKKINPICNDHYRSVYQKRLMDEAKILKSLHHPNIVGYRAFTEANDGSLCLAMEYGGEKSLNDLIEERYKASQDPFPAAIILKVALNMARGLKYLHQEKKLLHGDIKSSNVVIKGDFETIKICDVGVSLPLDENMTVTDPEACYIGTEPWKPKEAVEENGVITDKADIFAFGLTLWEMMTLSIPHINLSNDDDDEDKTFDESDFDDEAYYAALGTRPPINMEELDESYQKVIELFSVCTNEDPKDRPSAAHIVEALETDV
notes: Expressed in COS-7 or T47D cells; also called HA-tagged TOPK; WT; not shown: N-terminal HA tag (pCAGGSnHA)
Regarding B1, the binding result in assay [1] is “no binding”; in assay [2], “binds”.

B2: FLAG-tagged ERα (ERα-FLAG) (receptor, UniProt P03372 1-595, looked up)
chain: MTMTLHTKASGMALLHQIQGNELEPLNRPQLKIPLERPLGEVYLDSSKPAVYNYPEGAAYEFNAAAAANAQVYGQTGLPYGPGSEAAAFGSNGLGGFPPLNSVSPSPLMLLHPPPQLSPFLQPHGQQVPYYLENEPSGYTVREAGPPAFYRPNSDNRRQGGRERLASTNDKGSMAMESAKETRYCAVCNDYASGYHYGVWSCEGCKAFFKRSIQGHNDYMCPATNQCTIDKNRRKSCQACRLRKCYEVGMMKGGIRKDRRGGRMLKHKRQRDDGEGRGEVGSAGDMRAANLWPSPLMIKRSKKNSLALSLTADQMVSALLDAEPPILYSEYDPTRPFSEASMMGLLTNLADRELVHMINWAKRVPGFVDLTLHDQVHLLECAWLEILMIGLVWRSMEHPGKLLFAPNLLLDRNQGKCVEGMVEIFDMLLATSSRFRMMNLQGEEFVCLKSIILLNSGVYTFLSSTLKSLEEKDHIHRVLDKITDTLIHLMAKAGLTLQQQHQRLAQLLLILSHIRHMSNKGMEHLYSMKCKNVVPLYDLLLEMLDAHRLHAPTSRGGASVEETDQSHLATAGSTSSHSLQKYYITGEAEGFPATV
notes: Expressed in COS-7 cells; also called FLAG-ERα; estrogen receptor α; not shown: FLAG tag
As to B2, the binding result in assay [3] is recorded as “no binding”.
